Results as given in PMC4255369, “Identification of structural determinants on tau protein essential for its pathological function: novel therapeutic target for tau immunotherapy in Alzheimer’s disease” (Alzheimer's Research & Therapy, 2014).

What was measured:
Settings in all cases: both partners purified
[1] = target: T1, tau 268–273 (6-mer peptide from MTBR1) (Homo sapiens); experiment: ELISA; competitive ELISA; plates coated with 250 ng/well purified tau 151-391/4R; DC8E8 0.6 μg/ml (3.8 nM), 60 μl mixed with 40 μl of 200 μM peptide, 1 hour at 25°C, then 1 hour at 25°C on the plate
T1 construct: numbers count on: the longest human tau isoform (2N4R); also called HQPGGG; source: synthetic peptide, bought: EZBiolab (>95% purity)
T1 chain: HQPGGG

[2] = target: T2, tau 299–304 (6-mer peptide from MTBR2, identical to tau 362–367 from MTBR4) (Homo sapiens); experiment: as above
T2 construct: numbers count on: the longest human tau isoform (2N4R); source: synthetic peptide, bought: EZBiolab (>95% purity)
T2 chain: HVPGGG

[3] = target: T3, tau 330–335 (6-mer peptide from MTBR3) (Homo sapiens); experiment: as above
T3 construct: human tau residues 330-335; numbers count on: the longest human tau isoform (2N4R); also called HKPGGG; source: synthetic peptide, bought: EZBiolab (>95% purity)
T3 chain: HKPGGG

[4] = target: T4, human tau protein isoform 2N4R (Homo sapiens, isoform 2N4R (Tau-F, 441 …, UniProt P10636-8)); experiment: SPR; Biacore 3000, CM5; DC8E8 captured (230 to 250 RU) by coupled polyclonal anti-mouse antibody; twofold serial dilutions of tau proteins injected at 50 μl/min; 25°C, PBS pH 7.4 with 0.005% P20; fitted to a two-phase reaction model
T4 construct: human tau, longest isoform 2N4R (four repeats, two N-terminal inserts); also called full-length tau isoform 2N4R; physiological tau

[5] = target: T5, mis-disordered tau protein 151-391/4R (human, UniProt P10636-8); experiment: as above
T5 construct: numbers count on: the longest human tau isoform (2N4R); source: purified

[6] = target: T6, human tau protein isoform 2N3R (Homo sapiens, UniProt P10636-5); experiment: as above
T6 construct: human tau, isoform 2N3R (three repeats, two N-terminal inserts); also called three-repeat tau protein isoform 2N3R; full-length three-repeat tau protein

[7] = target: T7, mis-disordered tau 151-391/3R (Homo sapiens, UniProt P10636-5); experiment: as above
T7 construct: numbers count on: the longest human tau isoform (2N4R); also called three-repeat mis-disordered truncated tau protein
T7 sequence (P10636 other isoform, or with tags, fused parts or gaps): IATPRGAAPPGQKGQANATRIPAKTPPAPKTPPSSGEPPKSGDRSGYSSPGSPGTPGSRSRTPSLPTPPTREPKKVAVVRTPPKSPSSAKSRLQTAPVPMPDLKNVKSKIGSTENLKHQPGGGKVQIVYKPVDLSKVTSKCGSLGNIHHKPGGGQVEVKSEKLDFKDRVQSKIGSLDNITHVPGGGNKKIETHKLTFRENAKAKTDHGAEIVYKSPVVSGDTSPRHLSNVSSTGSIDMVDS

T5 sequence (P10636 468-708): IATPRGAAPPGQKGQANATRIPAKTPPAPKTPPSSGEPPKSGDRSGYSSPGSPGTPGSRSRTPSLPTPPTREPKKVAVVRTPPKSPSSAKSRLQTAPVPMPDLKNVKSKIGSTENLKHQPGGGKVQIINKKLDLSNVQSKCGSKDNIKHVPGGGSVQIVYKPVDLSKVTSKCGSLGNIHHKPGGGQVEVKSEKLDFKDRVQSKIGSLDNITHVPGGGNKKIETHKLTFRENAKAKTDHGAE
T6 sequence (P10636 other isoform, or with tags, fused parts or gaps): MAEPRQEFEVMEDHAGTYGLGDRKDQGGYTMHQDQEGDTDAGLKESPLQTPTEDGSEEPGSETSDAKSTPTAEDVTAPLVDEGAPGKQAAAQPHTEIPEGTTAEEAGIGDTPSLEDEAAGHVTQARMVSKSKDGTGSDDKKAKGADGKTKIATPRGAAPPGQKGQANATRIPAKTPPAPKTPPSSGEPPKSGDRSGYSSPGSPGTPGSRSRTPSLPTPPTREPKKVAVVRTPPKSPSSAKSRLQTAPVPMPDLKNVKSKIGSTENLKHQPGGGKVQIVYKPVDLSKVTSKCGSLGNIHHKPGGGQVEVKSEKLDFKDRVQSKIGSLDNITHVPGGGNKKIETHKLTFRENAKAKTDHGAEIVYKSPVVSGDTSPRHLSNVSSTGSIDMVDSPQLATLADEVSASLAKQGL
T4 sequence (P10636 other isoform, or with tags, fused parts or gaps): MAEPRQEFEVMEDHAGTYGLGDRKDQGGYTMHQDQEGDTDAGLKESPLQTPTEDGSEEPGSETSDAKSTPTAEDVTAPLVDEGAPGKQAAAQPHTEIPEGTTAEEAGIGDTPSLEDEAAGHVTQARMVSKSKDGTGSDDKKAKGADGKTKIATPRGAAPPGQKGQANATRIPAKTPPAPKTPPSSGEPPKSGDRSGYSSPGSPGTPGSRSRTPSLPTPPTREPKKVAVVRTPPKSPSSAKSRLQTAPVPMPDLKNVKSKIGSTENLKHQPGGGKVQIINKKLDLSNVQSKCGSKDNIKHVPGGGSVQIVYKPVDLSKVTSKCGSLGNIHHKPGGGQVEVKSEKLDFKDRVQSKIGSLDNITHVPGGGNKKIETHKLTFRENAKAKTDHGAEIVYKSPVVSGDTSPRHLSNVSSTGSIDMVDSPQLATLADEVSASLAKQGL

B1: monoclonal antibody DC8E8 (antibody, V domains shown)
VH: QVQLQQSGPELVKPGTSVKMPCKASGYIFTDYVISWVKQRTGQGLEWIGEIFPRSGSTYYNEKFKGKATLTADKSSNTAYMQLSSVTSEDSAVYFCARDYYGTSFAMDYWGQGTSVTVSS
VL: DIVMSQSPSSLAVSAGEKVTMSCKSSQSLLNSRTRKNYLAWYQQKPGQSPKLLIYWASTRESGVPDRFTGSGSGTDFTLTISSVQAEDLAVYYCKQSFYLRTFGGGTKLDIK
notes: the Fab of DC8E8 is deposited as PDB 4OZ4 (heavy chain of the Fab); the Fab of DC8E8 is deposited as PDB 4OZ4 (light chain); The crystal structure (4OZ4) is of the papain Fab without antigen; also called mAb DC8E8; source: mouse hybridoma (Balb/c spleen cells fused with NS0); hybridoma culture supernatant (indirect ELISA); purified antibody (protein G Sepharose)
B1: binds [1]; binds [2]; binds [3]. For the same binder, the koff [4] was 0.04 s⁻¹, the kon [4] was 440000 M⁻¹ s⁻¹ and the “fold affinity against full-length tau isoform 2N4R” value [5] was 7 fold. The koff [5] was 0.04 s⁻¹, the kon [5] was 2.9e+06 M⁻¹ s⁻¹ and the koff [6] was 0.4 s⁻¹. For the same binder, the kon [6] was 28000 M⁻¹ s⁻¹, the “fold affinity against full-length tau isoform 2N3R” value [7] was 25 fold and the koff [7] was 0.08 s⁻¹. For the same binder, the kon [7] was 150000 M⁻¹ s⁻¹.
